{"source": "paper PMC5348300", "about": "(Journal of the American Chemical Society, 2017)", "molecular_target": "the molecule itself", "test": "crystal structure"}
{"protein": "coproheme decarboxylase (HemQ) from Geobacillus stearothermophilus (enzyme) MSEAAQTLDGWYCLHDFRTIDWSAWKTLPNEEREAAISEFLALVDQWETTESEKQGSHAVYTIVGQKADILFMILRPTLDELHEIETALNKTKLADYLLPAYSYVSVVELSNYLASGSEDPYQIPEVRRRLYPILPKTNYICFYPMDKRRQGNDNWYMLSMEQRRELMRAHGMTGRKYAGKVTQIITGSVGLDDFEWGVTLFSDDALQFKKLVYEMRFDEVSARFGEFGSFFVGTRLPMENVSSFFHV", "values": [{"measurement": "stoichiometry N", "value": 5}]}
